Here are results for 1 variant from IntAct's records for PubMed 18952841.

B1: Protein CBFA2T1 (Homo sapiens), Q06455 (parent)
chain: MISVKRNTWRALSLVIGDCRKKGNFEYCQDRTEKHSTMPDSPVDVKTQSRLTPPTMPPPPTTQGAPRTSSFTPTTLTNGTSHSPTALNGAPSPPNGFSNGPSSSSSSSLANQQLPPACGARQLSKLKRFLTTLQQFGNDISPEIGERVRTLVLGLVNSTLTIEEFHSKLQEATNFPLRPFVIPFLKANLPLLQRELLHCARLAKQNPAQYLAQHEQLLLDASTTSPVDSSELLLDVNENGKRRTPDRTKENGFDREPLHSEHPSKRPCTISPGQRYSPNNGLSYQPNGLPHPTPPPPQHYRLDDMAIAHHYRDSYRHPSHRDLRDRNRPMGLHGTRQEEMIDHRLTDREWAEEWKHLDHLLNCIMDMVEKTRRSLTVLRRCQEADREELNYWIRRYSDAEDLKKGGGSSSSHSRQQSPVNPDPVALDAHREFLHRPASGYVPEEIWKKAEEAVNEVKRQAMTELQKAVSEAERKAHDMITTERAKMERTVAEAKRQAAEDALAVINQQEDSSESCWNCGRKASETCSGCNTARYCGSFCQHKDWEKHHHICGQTLQAQQQGDTPAVSSSVTPNSGAGSPMDTPPAATPRSTTPGTPSTIETTPR

The variants in one experiment derive from B1. The note with it: with son_human SON.
As to C515S, the “effect of a mutation on the interaction” value is “disrupting interaction strength”.

The variants in another experiment derive from B1. Particulars: with son_mouse Son.
Consider C515S, for which the “effect of a mutation on the interaction” value is “disrupting interaction strength”.
